In publication PMC9609871 (2022):

Target: PP2A catalytic subunit alpha (Homo sapiens, UniProt P67775)
Assay: biolayer interferometry (PP2A immobilized)

PP2A catalytic subunit alpha, sequence (P67775 whole entry): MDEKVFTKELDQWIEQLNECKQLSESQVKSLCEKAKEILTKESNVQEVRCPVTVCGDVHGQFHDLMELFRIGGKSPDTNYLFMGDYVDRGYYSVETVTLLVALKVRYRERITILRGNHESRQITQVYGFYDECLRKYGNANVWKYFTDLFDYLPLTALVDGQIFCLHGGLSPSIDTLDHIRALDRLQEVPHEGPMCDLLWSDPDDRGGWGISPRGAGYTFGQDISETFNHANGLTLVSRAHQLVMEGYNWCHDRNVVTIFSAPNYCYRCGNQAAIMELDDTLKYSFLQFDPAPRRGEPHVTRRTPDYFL

B1: Caspase 9 (protein)
chain: DEADRRLLRRCRLRLVEELQVDQLWDALLSRELFRPHMIEDIQRAGSGSRRDQARQLIIDLETRGSQALPLFISCLEDTGQDMLASFLRTNRQAAKLSKPTLENLTPVVLRPEIRKPEVLRPETPRPVDIGSGGFGDVGALESLRGNADLAYILSMEPCGHCLIINNVNFCRESGLRTRTGSNIDCEKLRRRFSSLHFMVEVKGDLTAKKMVLALLELAQQDHGALDCCVVVILSHGCQASHLQFPGAVYGTDGCPVSVEKIVNIFNGTSCPSLGGKPKLFFIQACGGEQKDHGFEVASTSPEDESPGSNPEPDATPFQEGLRTFDQLDAISSLPTPSDIFVSYSTFPGFVSWRDPKSGSWYVETLDDIFEQWAHSEDLQSLLLRVANAVSVKGIYKQMPGCFNFLRKKLFFKTS
- Kd: 228 nM
